According to the MegaScale stability set (Tsuboyama et al. 2023):

B1: r16_88_TrROS_Hall (parent)
chain: EVIELKIKFKTPEQREKLKEIAKKLNAEVVEEKDGEVIIRFKTPEQAERALKEAEKLGAEVEL

Variants of: B1
Test: folding stability dG (cDNA display proteolysis); higher = more stable
Settings: PBS, room temperature

Variant | folding stability dG
EVIELKIKFKTPEQREKLKEIAKKLNAEVVEEKDGAVIIRFKTPEQAERALKEAEKLGAEVEL | 19.2 kJ/mol
EVIELKIKFKTPEQREKLKEIAKKLNAEVVEEKDGHVIIRFKTPEQAERALKEAEKLGAEVEL | 19.6 kJ/mol
EVIELKIKFKTPEQREKLKEIAKKLNAEVVEEKDGDVIIRFKTPEQAERALKEAEKLGAEVEL | 18.8 kJ/mol
EVIELKIKFKTPEQREKLKEIAKKLNAEVVEEKDGKVIIRFKTPEQAERALKEAEKLGAEVEL | 19.5 kJ/mol
EVIELKIKFKTPEQREKLKEIAKKLNAEVVEEKDGVVIIRFKTPEQAERALKEAEKLGAEVEL | 18.2 kJ/mol
EVIELKIKFKTPEQREKLKEIAKKLNAEVVEEKDGMVIIRFKTPEQAERALKEAEKLGAEVEL | 18.8 kJ/mol
EVIELKIKFKTPEQREKLKEIAKKLNAEVVEEKDGLVIIRFKTPEQAERALKEAEKLGAEVEL | 19.3 kJ/mol
EVIELKIKFKTPEQREKLKEIAKKLNAEVVEEKDGYVIIRFKTPEQAERALKEAEKLGAEVEL | 20.5 kJ/mol
EVIELKIKFKTPEQREKLKEIAKKLNAEVVEEKDGTVIIRFKTPEQAERALKEAEKLGAEVEL | 19.2 kJ/mol
EVIELKIKFKTPEQREKLKEIAKKLNAEVVEEKDGSVIIRFKTPEQAERALKEAEKLGAEVEL | 17.8 kJ/mol
EVIELKIKFKTPEQREKLKEIAKKLNAEVVEEKDGWVIIRFKTPEQAERALKEAEKLGAEVEL | 19.7 kJ/mol
EVIELKIKFKTPEQREKLKEIAKKLNAEVVEEKDGIVIIRFKTPEQAERALKEAEKLGAEVEL | 18.1 kJ/mol
EVIELKIKFKTPEQREKLKEIAKKLNAEVVEEKDGQVIIRFKTPEQAERALKEAEKLGAEVEL | 19.5 kJ/mol
EVIELKIKFKTPEQREKLKEIAKKLNAEVVEEKDGGVIIRFKTPEQAERALKEAEKLGAEVEL | 18.4 kJ/mol
EVIELKIKFKTPEQREKLKEIAKKLNAEVVEEKDGCVIIRFKTPEQAERALKEAEKLGAEVEL | 18.4 kJ/mol
EVIELKIKFKTPEQREKLKEIAKKLNAEVVEEKDGNVIIRFKTPEQAERALKEAEKLGAEVEL | 17.7 kJ/mol
EVIELKIKFKTPEQREKLKEIAKKLNAEVVEEKDGPVIIRFKTPEQAERALKEAEKLGAEVEL | 17 kJ/mol
EVIELKIKFKTPEQREKLKEIAKKLNAEVVEEKDGRVIIRFKTPEQAERALKEAEKLGAEVEL | 19.3 kJ/mol
EVIELKIKFKTPEQREKLKEIAKKLNAEVVEEKDGFVIIRFKTPEQAERALKEAEKLGAEVEL | 19.5 kJ/mol
EVIELKIKFKTPEQREKLKEIAKKLNAEVVEEKDEEVIIRFKTPEQAERALKEAEKLGAEVEL | 17.3 kJ/mol
EVIELKIKFKTPEQREKLKEIAKKLNAEVVEEKDIEVIIRFKTPEQAERALKEAEKLGAEVEL | 18.9 kJ/mol
EVIELKIKFKTPEQREKLKEIAKKLNAEVVEEKDVEVIIRFKTPEQAERALKEAEKLGAEVEL | 18.2 kJ/mol

Variant | folding stability dG
EVIELKIKFKTPEQREKLKEIAKKLNAEVVEEKDLEVIIRFKTPEQAERALKEAEKLGAEVEL | 18.1 kJ/mol
EVIELKIKFKTPEQREKLKEIAKKLNAEVVEEKDTEVIIRFKTPEQAERALKEAEKLGAEVEL | 18.2 kJ/mol
EVIELKIKFKTPEQREKLKEIAKKLNAEVVEEKDPEVIIRFKTPEQAERALKEAEKLGAEVEL | 15.9 kJ/mol
EVIELKIKFKTPEQREKLKEIAKKLNAEVVEEKDHEVIIRFKTPEQAERALKEAEKLGAEVEL | 17.4 kJ/mol
EVIELKIKFKTPEQREKLKEIAKKLNAEVVEEKDCEVIIRFKTPEQAERALKEAEKLGAEVEL | 18.7 kJ/mol
EVIELKIKFKTPEQREKLKEIAKKLNAEVVEEKDKEVIIRFKTPEQAERALKEAEKLGAEVEL | 17.7 kJ/mol
EVIELKIKFKTPEQREKLKEIAKKLNAEVVEEKDWEVIIRFKTPEQAERALKEAEKLGAEVEL | 18.7 kJ/mol
EVIELKIKFKTPEQREKLKEIAKKLNAEVVEEKDNEVIIRFKTPEQAERALKEAEKLGAEVEL | 18.1 kJ/mol
EVIELKIKFKTPEQREKLKEIAKKLNAEVVEEKDFEVIIRFKTPEQAERALKEAEKLGAEVEL | 17.7 kJ/mol
EVIELKIKFKTPEQREKLKEIAKKLNAEVVEEKDSEVIIRFKTPEQAERALKEAEKLGAEVEL | 18.7 kJ/mol
EVIELKIKFKTPEQREKLKEIAKKLNAEVVEEKDQEVIIRFKTPEQAERALKEAEKLGAEVEL | 17.8 kJ/mol
EVIELKIKFKTPEQREKLKEIAKKLNAEVVEEKDAEVIIRFKTPEQAERALKEAEKLGAEVEL | 18.8 kJ/mol
EVIELKIKFKTPEQREKLKEIAKKLNAEVVEEKDREVIIRFKTPEQAERALKEAEKLGAEVEL | 18.5 kJ/mol
EVIELKIKFKTPEQREKLKEIAKKLNAEVVEEKDYEVIIRFKTPEQAERALKEAEKLGAEVEL | 17.5 kJ/mol
EVIELKIKFKTPEQREKLKEIAKKLNAEVVEEKDMEVIIRFKTPEQAERALKEAEKLGAEVEL | 17.8 kJ/mol
EVIELKIKFKTPEQREKLKEIAKKLNAEVVEEKDDEVIIRFKTPEQAERALKEAEKLGAEVEL | 17.2 kJ/mol
EVIELKIKFKTPEQREKLKEIAKKLNAEVVEEKDGEAIIRFKTPEQAERALKEAEKLGAEVEL | 17.1 kJ/mol
EVIELKIKFKTPEQREKLKEIAKKLNAEVVEWKDGEVIIRFKTPEQAERALKEAEKLGAEVEL | 18.2 kJ/mol
EVIELKIKFKTPEQREKLKEIAKKLNAEVVEVKDGEVIIRFKTPEQAERALKEAEKLGAEVEL | 19 kJ/mol
EVIELKIKFKTPEQREKLKEIAKKLNAEVVERKDGEVIIRFKTPEQAERALKEAEKLGAEVEL | 18 kJ/mol
EVIELKIKFKTPEQREKLKEIAKKLNAEVVETKDGEVIIRFKTPEQAERALKEAEKLGAEVEL | 18.9 kJ/mol
EVIELKIKFKTPEQREKLKEIAKKLNAEVVEYKDGEVIIRFKTPEQAERALKEAEKLGAEVEL | 19.5 kJ/mol

Variant | folding stability dG
EVIELKIKFKTPEQREKLKEIAKKLNAEVVESKDGEVIIRFKTPEQAERALKEAEKLGAEVEL | 18.8 kJ/mol
EVIELKIKFKTPEQREKLKEIAKKLNAEVVEQKDGEVIIRFKTPEQAERALKEAEKLGAEVEL | 19.3 kJ/mol
EVIELKIKFKTPEQREKLKEIAKKLNAEVVEPKDGEVIIRFKTPEQAERALKEAEKLGAEVEL | 19 kJ/mol
EVIELKIKFKTPEQREKLKEIAKKLNAEVVEEGDGEVIIRFKTPEQAERALKEAEKLGAEVEL | 18.2 kJ/mol
EVIELKIKFKTPEQREKLKEIAKKLNAEVVEEIDGEVIIRFKTPEQAERALKEAEKLGAEVEL | 17.9 kJ/mol
EVIELKIKFKTPEQREKLKEIAKKLNAEVVEENDGEVIIRFKTPEQAERALKEAEKLGAEVEL | 18.1 kJ/mol
EVIELKIKFKTPEQREKLKEIAKKLNAEVVEERDGEVIIRFKTPEQAERALKEAEKLGAEVEL | 18.5 kJ/mol
EVIELKIKFKTPEQREKLKEIAKKLNAEVVEEFDGEVIIRFKTPEQAERALKEAEKLGAEVEL | 18.5 kJ/mol
EVIELKIKFKTPEQREKLKEIAKKLNAEVVEEVDGEVIIRFKTPEQAERALKEAEKLGAEVEL | 18.2 kJ/mol
EVIELKIKFKTPEQREKLKEIAKKLNAEVVEESDGEVIIRFKTPEQAERALKEAEKLGAEVEL | 17.5 kJ/mol
EVIELKIKFKTPEQREKLKEIAKKLNAEVVEEPDGEVIIRFKTPEQAERALKEAEKLGAEVEL | 17.9 kJ/mol
EVIELKIKFKTPEQREKLKEIAKKLNAEVVEELDGEVIIRFKTPEQAERALKEAEKLGAEVEL | 19.2 kJ/mol
EVIELKIKFKTPEQREKLKEIAKKLNAEVVEETDGEVIIRFKTPEQAERALKEAEKLGAEVEL | 18.2 kJ/mol
EVIELKIKFKTPEQREKLKEIAKKLNAEVVEEHDGEVIIRFKTPEQAERALKEAEKLGAEVEL | 18.6 kJ/mol
EVIELKIKFKTPEQREKLKEIAKKLNAEVVEECDGEVIIRFKTPEQAERALKEAEKLGAEVEL | 18.5 kJ/mol
EVIELKIKFKTPEQREKLKEIAKKLNAEVVEEYDGEVIIRFKTPEQAERALKEAEKLGAEVEL | 18 kJ/mol
EVIELKIKFKTPEQREKLKEIAKKLNAEVVEEDDGEVIIRFKTPEQAERALKEAEKLGAEVEL | 17.8 kJ/mol
EVIELKIKFKTPEQREKLKEIAKKLNAEVVEEWDGEVIIRFKTPEQAERALKEAEKLGAEVEL | 18.6 kJ/mol
EVIELKIKFKTPEQREKLKEIAKKLNAEVVEEMDGEVIIRFKTPEQAERALKEAEKLGAEVEL | 18.4 kJ/mol
EVIELKIKFKTPEQREKLKEIAKKLNAEVVEEADGEVIIRFKTPEQAERALKEAEKLGAEVEL | 18.3 kJ/mol
EVIELKIKFKTPEQREKLKEIAKKLNAEVVEEEDGEVIIRFKTPEQAERALKEAEKLGAEVEL | 16.7 kJ/mol
EVIELKIKFKTPEQREKLKEIAKKLNAEVVEEQDGEVIIRFKTPEQAERALKEAEKLGAEVEL | 18.8 kJ/mol

Variant | folding stability dG
EVIELKIKFKTPEQREKLKEIAKKLNAEVVEEKMGEVIIRFKTPEQAERALKEAEKLGAEVEL | 18.8 kJ/mol
EVIELKIKFKTPEQREKLKEIAKKLNAEVVEEKAGEVIIRFKTPEQAERALKEAEKLGAEVEL | 18.1 kJ/mol
EVIELKIKFKTPEQREKLKEIAKKLNAEVVEEKWGEVIIRFKTPEQAERALKEAEKLGAEVEL | 18.1 kJ/mol
EVIELKIKFKTPEQREKLKEIAKKLNAEVVEEKQGEVIIRFKTPEQAERALKEAEKLGAEVEL | 18.2 kJ/mol
EVIELKIKFKTPEQREKLKEIAKKLNAEVVEEKHGEVIIRFKTPEQAERALKEAEKLGAEVEL | 18.9 kJ/mol
EVIELKIKFKTPEQREKLKEIAKKLNAEVVEEKIGEVIIRFKTPEQAERALKEAEKLGAEVEL | 18.8 kJ/mol
EVIELKIKFKTPEQREKLKEIAKKLNAEVVEEKNGEVIIRFKTPEQAERALKEAEKLGAEVEL | 18 kJ/mol
EVIELKIKFKTPEQREKLKEIAKKLNAEVVEEKGGEVIIRFKTPEQAERALKEAEKLGAEVEL | 18.7 kJ/mol
EVIELKIKFKTPEQREKLKEIAKKLNAEVVEEKRGEVIIRFKTPEQAERALKEAEKLGAEVEL | 17.7 kJ/mol
EVIELKIKFKTPEQREKLKEIAKKLNAEVVEEKTGEVIIRFKTPEQAERALKEAEKLGAEVEL | 18.8 kJ/mol
EVIELKIKFKTPEQREKLKEIAKKLNAEVVEEKPGEVIIRFKTPEQAERALKEAEKLGAEVEL | 17.8 kJ/mol
EVIELKIKFKTPEQREKLKEIAKKLNAEVVEEKKGEVIIRFKTPEQAERALKEAEKLGAEVEL | 17.5 kJ/mol
EVIELKIKFKTPEQREKLKEIAKKLNAEVVEEKYGEVIIRFKTPEQAERALKEAEKLGAEVEL | 17.9 kJ/mol
EVIELKIKFKTPEQREKLKEIAKKLNAEVVEEKFGEVIIRFKTPEQAERALKEAEKLGAEVEL | 18.2 kJ/mol
EVIELKIKFKTPEQREKLKEIAKKLNAEVVEEKLGEVIIRFKTPEQAERALKEAEKLGAEVEL | 18 kJ/mol
EVIELKIKFKTPEQREKLKEIAKKLNAEVVEEKEGEVIIRFKTPEQAERALKEAEKLGAEVEL | 18.6 kJ/mol
EVIELKIKFKTPEQREKLKEIAKKLNAEVVEEKVGEVIIRFKTPEQAERALKEAEKLGAEVEL | 18.4 kJ/mol
EVIELKIKFKTPEQREKLKEIAKKLNAEVVEEKSGEVIIRFKTPEQAERALKEAEKLGAEVEL | 17.8 kJ/mol
EVIELKIKFKTPEQREKLKEIAKKLNAEVVEEKCGEVIIRFKTPEQAERALKEAEKLGAEVEL | 18.5 kJ/mol
